Experimental data from publication PMC5102582 (eLife, 2016).

B1: UBXD1-N (N-terminal portion of UBXD1, residues 1-133) (domain or fragment, Mus musculus, UniProt Q99PL6 1-133, looked up)
chain: MKKFFQEIKADIKFKSAGPGQKLTDSAGEKTTKGKSPQLALRQPRQGPTDEAQMAAAAALARLEQKQPRARGPTSQDSIRNQVRKELQAEATSSNNPGAPGTNSVPEPKEEISPHLAVPGVFFICPLTGVTLR
notes: UBXD1, Mus musculus, residues 1-133 (holds H1/H2 and VIM, residues 52-63); perdeuterated; construct after Trusch et al., 2015; not shown: His6, N-terminal, cleaved
B2: full-length p47 (natural protein, Mus musculus, UniProt Q9CZ44 1-370, looked up)
chain: MAEERQDALREFVAVTGTEEDRARFFLESAGWDLQIALASFYEDGGDEDIVTISQATPSSVSRGTAPSDNRVTSFRDLIHDQDEEEEEEEGQRFYAGGSERSGQQIVGPPRKKSPNELVDDLFKGAKEHGAVAVERVTKSPGETSKPRPFAGGGYRLGAAPEEESAYVAGERRRHSGQDVHVVLKLWKTGFSLDNGDLRSYQDPSNAQFLESIRRGEVPAELRRLAHGGQVNLDMEDHRDEDFVKPKGAFKAFTGEGQKLGSTAPQVLNTSSPAQQAENEAKASSSILINEAEPTTNIQIRLADGGRLVQKFNHSHRISDIRLFIVDARPAMAATSFVLMTTFPNKELADENQTLKEANLLNAVIVQRLT
notes: p47 (NSFL1 cofactor p47), Mus musculus, full length; perdeuterated; eluted as a trimer on gel filtration; also called p47 trimer; not shown: His6, N-terminal, cleaved

Experiments:
[1] = molecular target: T1, wt ND1Lp97-ADP (p97/VCP residues 1-480: NTD, D1 and the D1-D2 linker) (Homo sapiens/Mus musculus (identical), UniProt P55072 1-480); test: NMR titration; methyl-TROSY 13C-1H HMQC chemical shift titration of ILVM-13CH3 wt ND1Lp97-ADP with perdeuterated UBXD1-N; global analysis of V68, L140, I175, I182; effective macroscopic Kd; 50°C; 25 mM HEPES pH 7.0, 50 mM NaCl, 10 mM ADP, 5 mM TCEP, D2O; a new sample for each ligand concentration; conditions: both partners purified
T1 construct: p97/VCP, Homo sapiens/Mus musculus (identical), UniProt P55072 versus Q01853, residues 1-480; highly deuterated, ILVM-13CH3 methyl labelled; 320 kDa hexamer (6 x 53 kDa); also called p97 ND1L 1-480; NDL1p97-ADP; not shown: His6, N-terminal, cleaved

R155H ND1Lp97-ADP = molecular target: T2, R155H ND1Lp97-ADP (Homo sapiens/Mus musculus (identical), UniProt P55072 1-480, R155H); test: NMR titration; one point: 150 µM UBXD1-N added to 50 µM (monomer) wt or mutant ND1Lp97-ADP (3:1); methyl-TROSY HMQC CSPs; Kd from the bound fraction by the V68 shift; 50°C; 25 mM HEPES pH 7.0, 50 mM NaCl, 10 mM ADP, 5 mM TCEP, D2O; conditions: both partners purified
T2 construct: p97/VCP, Homo sapiens/Mus musculus (identical), residues 1-480, IBMPFD disease mutation R155H; deuterated, ILVM-13CH3 labelled; mutation found in IBMPFD patients; not shown: His6, N-terminal, cleaved

R95G ND1Lp97-ADP = molecular target: T3, R95G ND1Lp97-ADP (Homo sapiens/Mus musculus (identical), UniProt P55072 1-480, R95G); test: as above; conditions: both partners purified
T3 construct: p97/VCP, Homo sapiens/Mus musculus (identical), residues 1-480, IBMPFD disease mutation R95G; deuterated, ILVM-13CH3 labelled; mutation found in IBMPFD patients; also called R95G mutant; not shown: His6, N-terminal, cleaved

R155P ND1Lp97-ADP = molecular target: T4, R155P ND1Lp97-ADP (Homo sapiens/Mus musculus (identical), UniProt P55072 1-480, R155P); test: as above; conditions: both partners purified
T4 construct: p97/VCP, Homo sapiens/Mus musculus (identical), residues 1-480, IBMPFD disease mutation R155P; deuterated, ILVM-13CH3 labelled; mutation found in IBMPFD patients; not shown: His6, N-terminal, cleaved

N387H ND1Lp97-ADP = molecular target: T5, N387H ND1Lp97-ADP (Homo sapiens/Mus musculus (identical), UniProt P55072 1-480, N387H); test: as above; conditions: both partners purified
T5 construct: p97/VCP, Homo sapiens/Mus musculus (identical), residues 1-480, IBMPFD disease mutation N387H; deuterated, ILVM-13CH3 labelled; mutation found in IBMPFD patients; not shown: His6, N-terminal, cleaved

[2] = molecular target: the molecule itself; test: SEC; HiLoad 16/60 Superdex 200 gel filtration column, during purification of full-length p47

T5 sequence (P55072 1-480 N387H): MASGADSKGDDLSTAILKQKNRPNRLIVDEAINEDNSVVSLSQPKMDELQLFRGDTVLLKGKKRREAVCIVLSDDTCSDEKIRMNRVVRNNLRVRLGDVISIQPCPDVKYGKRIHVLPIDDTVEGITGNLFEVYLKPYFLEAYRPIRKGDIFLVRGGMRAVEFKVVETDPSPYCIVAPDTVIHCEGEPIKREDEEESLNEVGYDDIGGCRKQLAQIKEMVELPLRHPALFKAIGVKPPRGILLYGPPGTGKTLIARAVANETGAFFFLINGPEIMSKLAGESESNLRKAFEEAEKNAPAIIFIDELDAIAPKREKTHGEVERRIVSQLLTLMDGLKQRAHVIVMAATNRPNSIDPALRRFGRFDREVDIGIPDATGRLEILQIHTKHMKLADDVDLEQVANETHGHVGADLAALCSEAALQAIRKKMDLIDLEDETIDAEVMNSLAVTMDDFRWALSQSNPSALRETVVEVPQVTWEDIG
T1 sequence (P55072 1-480): as the sequence (P55072 1-480 N387H) above, with H387N counted along it
T4 sequence (P55072 1-480 R155P): as the sequence (P55072 1-480 N387H) above, with R155P, H387N counted along it
T3 sequence (P55072 1-480 R95G): as the sequence (P55072 1-480 N387H) above, with R95G, H387N counted along it
T2 sequence (P55072 1-480 R155H): as the sequence (P55072 1-480 N387H) above, with R155H, H387N counted along it

| Binder | Kd [1] [µM] | Kd (R155H ND1Lp97-ADP) [µM] | Kd (R95G ND1Lp97-ADP) [µM] | Kd (R155P ND1Lp97-ADP) [µM] | Kd (N387H ND1Lp97-ADP) [µM] | stoichiometry N [2] |
| --- | --- | --- | --- | --- | --- | --- |
| B1 | 22 ± 2 | ~80 | ~200 | ~200 | ~80 | – |
| B2 | – | – | – | – | – | 3 |
